Measured values from patent EP4063497B1.

B1: anti-IMP-type carbapenemase antibody AH9 (antibody, V domains shown)
VH: VKLQQSGAELVKPGASVKISCKASGYTFTDYNMDWVKQSHGKSLEWIGDINPNYDSTRYNQKFKGKATLTVDKSSSTAYMELRSLTSEDTAVYYCARDGRYAMDYWGQGTSVTVSS
VL: DIVMTQSPSSLSVSAGEKVTLTCKSSQSLLNSGHQKNYLAWYQQKPGQPPKLLIYGASTRKSGIPDRFTGSGSGTDFTLTISSVQAEDLAVYYCQNDHRYPLTFGAGTKLELKR
B2: anti-IMP-type carbapenemase antibody 1AA4 (antibody, V domains shown)
VH: VQLVVSGGGLVNPDGSLKLSCAASGFTFSDYYMYWVRQTPEKRLEWVAIISDGGSYTYYPDSVKGRFTISRDNAKNNLYLQMSGLRSEDTAMYYCVRGSFDVWGAGTTVTVSA
VL: DIVMTQSPLTLSVTLGQPASISCRSSQSLLDSGGKTYLNWFLQRPGQSPKRLIYLVSKLDSGVPDRFTGSGSGTDFTLRISRVEAEDLGIYYCFQYTHFPQCTFGGGTTLEIKR

Molecular target: IMP-4-type carbapenemase
Assay: indirect ELISA, plate coated with IMP-4-type carbapenemase at 0.2 ug/mL, purified antibody serially diluted from 1:1,000
Conditions: scale: dilution factor

Row | Binder | titer
1 | B1 | > 640000
2 | B2 | > 640000
